Laboratory results published in the RNAGym collection of RNA variant scans (doi:10.1073/pnas.2313332121).
For part of these data: Fewer inactive variants are shown than the library holds.

B1: TPR 5TU (parent)
chain: GGAUCUUCUCGAUCUAACAAAAAAGACAAAUCUGCCACAAAGCUUGAGAGCAUCUUCGGAUGCAGAGGCGGCAGCCUUCGGUGGCGCGAUAGCGCCAACGUUCUCAACUAUGACACGCAAAACGCGUGCUCCGUUGAAUGGAGUUUAUCAUG
B2: TPR t1 (parent)
chain: GACCAAUCUGCCCUCAGAGCUCGAGAACAUCUUCGGAUGCAGAGGAGGCAGGCUUCGGUGGCGCGAUAGCGCCAACGUCCUCAACCUCCAAUGCAUCCCACCACAUGAUGAUGCCUGAAGAGCCUUGGUUUUUUG

Variants of: B1
Assay: polymerase ribozyme fitness, log enrichment relative to wild type (log ratio); higher = more active; in vitro selection for triplet polymerase activity
Outline: (§1)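 Input and output libraries were sequenced on Illumina after a single in vitro selection round, run in triplicate on PCR-built, transcribed mutant libraries of each subunit of a heterodimeric triplet polymerase ribozyme. Selection annealed libraries to a biotinylated primer, the partner subunit and triplets, incubated them frozen at −7 °C, then gel-excised extended constructs for streptavidin-bead capture and RT-PCR. Genotypes with ≥10 input reads and ≥1 read per output were kept. Fitness is the logarithm, taken in base 2, of genotype enrichment divided by wild-type enrichment, using inverse-variance-weighted replicate averages.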
For U13G A47G G48A A89C C93U C99G, the “polymerase ribozyme fitness (log ratio)” value was ≤ -4.2. In the case of A73G C85A U109G, the “polymerase ribozyme fitness (log ratio)” value is reported as -2.78. With U82A G83A C99U G117A U144A the “polymerase ribozyme fitness (log ratio)” value was -2.53. For A40C A106U A138G, the “polymerase ribozyme fitness (log ratio)” value was ≤ -4.2. In the case of C10A A22U A39U C85U G126A, the “polymerase ribozyme fitness (log ratio)” value is reported as ≤ -4.2. In the case of G50A A73G A150G, the “polymerase ribozyme fitness (log ratio)” value is reported as ≤ -4.2. With G50U G58U the “polymerase ribozyme fitness (log ratio)” value was 0.771. For G58A G84C, the “polymerase ribozyme fitness (log ratio)” value was -1.94. For C14U A49G U53A C85U C116A, the “polymerase ribozyme fitness (log ratio)” value was -3.48. In the case of C5A U53A C93U C125A G152A, the “polymerase ribozyme fitness (log ratio)” value is reported as -4.17. For U56A C87U, the “polymerase ribozyme fitness (log ratio)” value was -1.66. With A21U C35U U56A C96A A142U the “polymerase ribozyme fitness (log ratio)” value was -2.21. With G11U G94A G133C the “polymerase ribozyme fitness (log ratio)” value was -2.79. With A41U A47C G59U U61A A66U C85G A107C U148C the “polymerase ribozyme fitness (log ratio)” value was ≤ -4.2. In the case of A17C C35U G92A A122G, the “polymerase ribozyme fitness (log ratio)” value is reported as -2.61. For A19U G59A G88U A89G G94U A113G, the “polymerase ribozyme fitness (log ratio)” value was ≤ -4.2. For U4C C51A U82A C96A, the “polymerase ribozyme fitness (log ratio)” value was ≤ -4.2. With G11U G70U G83C A122G G143C the “polymerase ribozyme fitness (log ratio)” value was ≤ -4.2. For G92A C103G, the “polymerase ribozyme fitness (log ratio)” value was -4. For U7A G11U G50A A64G G68A C72U C87U A115U A122G C149A U151A, the “polymerase ribozyme fitness (log ratio)” value was ≤ -4.2. With C5G C10G U13G C14G C54A C57U G88U G94A U139C U144C the “polymerase ribozyme fitness (log ratio)” value was ≤ -4.2. In the case of U104G A120G, the “polymerase ribozyme fitness (log ratio)” value is reported as -0.0889. For U56A G84A C105A C131U, the “polymerase ribozyme fitness (log ratio)” value was -1.2. In the case of U15G A37U U56A C57A C123U, the “polymerase ribozyme fitness (log ratio)” value is reported as -1.55. For U44A C95U A97U, the “polymerase ribozyme fitness (log ratio)” value was ≤ -4.2. With U44A C57G G70C C96U A107U C149G A150C the “polymerase ribozyme fitness (log ratio)” value was ≤ -4.2. With G11C the “polymerase ribozyme fitness (log ratio)” value was -1.36. With U6A C10G C75G U78C C96G A97G U102G the “polymerase ribozyme fitness (log ratio)” value was ≤ -4.2. In the case of G65A G88U A150G, the “polymerase ribozyme fitness (log ratio)” value is reported as ≤ -4.2. In the case of U4A G84A C99U U109G A120C G152C, the “polymerase ribozyme fitness (log ratio)” value is reported as -3.96. For U109A, the “polymerase ribozyme fitness (log ratio)” value was -1.11. In the case of G62U G68C A98G G124C G141A, the “polymerase ribozyme fitness (log ratio)” value is reported as ≤ -4.2. With A12G A28C C116A A147C the “polymerase ribozyme fitness (log ratio)” value was ≤ -4.2. With C85U A121C G141U the “polymerase ribozyme fitness (log ratio)” value was 2.08. With G70A C93A C123U the “polymerase ribozyme fitness (log ratio)” value was ≤ -4.2. With U4G C36A U55A U61A C76U C87U the “polymerase ribozyme fitness (log ratio)” value was ≤ -4.2. With A20U C87U G88C U101A U146G the “polymerase ribozyme fitness (log ratio)” value was ≤ -4.2. For A28U U56A A97G, the “polymerase ribozyme fitness (log ratio)” value was ≤ -4.2. With A106C U134C the “polymerase ribozyme fitness (log ratio)” value was 0.274. In the case of C87U G88C, the “polymerase ribozyme fitness (log ratio)” value is reported as -3.83. For C35U C85G A98U A115G C132A U135A, the “polymerase ribozyme fitness (log ratio)” value was ≤ -4.2. In the case of G124A U127C, the “polymerase ribozyme fitness (log ratio)” value is reported as -2.79. In the case of A3C U45A G59U G92U, the “polymerase ribozyme fitness (log ratio)” value is reported as ≤ -4.2. With U53A A73U C85U G124U U134C U135C the “polymerase ribozyme fitness (log ratio)” value was ≤ -4.2. In the case of G48C U61A C93U U151A, the “polymerase ribozyme fitness (log ratio)” value is reported as ≤ -4.2. For C5A A30U U77A G92U, the “polymerase ribozyme fitness (log ratio)” value was ≤ -4.2. In the case of A17G C27U A41U, the “polymerase ribozyme fitness (log ratio)” value is reported as -1.51. With A21U G58C C76G C87U C105A A119U the “polymerase ribozyme fitness (log ratio)” value was ≤ -4.2. For G84A A98U, the “polymerase ribozyme fitness (log ratio)” value was -0.469. For G65A U139C G141C, the “polymerase ribozyme fitness (log ratio)” value was -3.69. For G92A U145G, the “polymerase ribozyme fitness (log ratio)” value was -2.54. With G42A G59U the “polymerase ribozyme fitness (log ratio)” value was -3.95. With A41U G92U G141A the “polymerase ribozyme fitness (log ratio)” value was -1.22. For A39G U145A, the “polymerase ribozyme fitness (log ratio)” value was -1.85. In the case of A41C A91G G141U, the “polymerase ribozyme fitness (log ratio)” value is reported as -2.56. With U4A A21U G50A G68A G74A C75G C93U A107C C131G the “polymerase ribozyme fitness (log ratio)” value was ≤ -4.2. In the case of G42U C85G G86C U90G, the “polymerase ribozyme fitness (log ratio)” value is reported as ≤ -4.2. In the case of G83A C118G, the “polymerase ribozyme fitness (log ratio)” value is reported as -0.683.

Variants of: B2
Assay: as above
Outline: as §1
In the case of U129C U132A, the “polymerase ribozyme fitness (log ratio)” value is reported as -0.43. With U129A U132C the “polymerase ribozyme fitness (log ratio)” value was -0.64. In the case of G128A U133A, the “polymerase ribozyme fitness (log ratio)” value is reported as -3.85. For U132G U133A, the “polymerase ribozyme fitness (log ratio)” value was 0.0135. For U129C U133G, the “polymerase ribozyme fitness (log ratio)” value was 0.0769. In the case of G127U U129A U130C, the “polymerase ribozyme fitness (log ratio)” value is reported as -1.27. With G128C U133A the “polymerase ribozyme fitness (log ratio)” value was -2.85. With U131G U133A the “polymerase ribozyme fitness (log ratio)” value was -0.289. For U129C U130A, the “polymerase ribozyme fitness (log ratio)” value was -0.859. For G128U, the “polymerase ribozyme fitness (log ratio)” value was -1.57. In the case of G128C, the “polymerase ribozyme fitness (log ratio)” value is reported as -2.23. For G128A, the “polymerase ribozyme fitness (log ratio)” value was -1.65. With U129C U134G the “polymerase ribozyme fitness (log ratio)” value was 1.11. For U129G U133A, the “polymerase ribozyme fitness (log ratio)” value was -2. For G135C, the “polymerase ribozyme fitness (log ratio)” value was 0.446. With G135U the “polymerase ribozyme fitness (log ratio)” value was -0.939. With G135A the “polymerase ribozyme fitness (log ratio)” value was -0.639. In the case of U132G, the “polymerase ribozyme fitness (log ratio)” value is reported as -2.28. With U132A the “polymerase ribozyme fitness (log ratio)” value was -0.0436. With U132C the “polymerase ribozyme fitness (log ratio)” value was -0.134. In the case of U129A U130C, the “polymerase ribozyme fitness (log ratio)” value is reported as -0.653. With U129C U131G the “polymerase ribozyme fitness (log ratio)” value was 0.298. With U129C U131A the “polymerase ribozyme fitness (log ratio)” value was -0.49. With U134G the “polymerase ribozyme fitness (log ratio)” value was 0.625. In the case of U134A, the “polymerase ribozyme fitness (log ratio)” value is reported as 0.465. In the case of U134C, the “polymerase ribozyme fitness (log ratio)” value is reported as -0.304.
